Laboratory results from patent US20200087297A1 (Genentech, published 2020).
“And” between values parts separate entries of the source, which are not always exact repeats. Equal values may be shown once. Read-outs that look alike come from different tables or passages of the source.

T1: NaPi2b (SLC34A2, type II sodium-dependent phosphate transporter 3b) (human, UniProt O95436 1-690)
T1 sequence (looked up): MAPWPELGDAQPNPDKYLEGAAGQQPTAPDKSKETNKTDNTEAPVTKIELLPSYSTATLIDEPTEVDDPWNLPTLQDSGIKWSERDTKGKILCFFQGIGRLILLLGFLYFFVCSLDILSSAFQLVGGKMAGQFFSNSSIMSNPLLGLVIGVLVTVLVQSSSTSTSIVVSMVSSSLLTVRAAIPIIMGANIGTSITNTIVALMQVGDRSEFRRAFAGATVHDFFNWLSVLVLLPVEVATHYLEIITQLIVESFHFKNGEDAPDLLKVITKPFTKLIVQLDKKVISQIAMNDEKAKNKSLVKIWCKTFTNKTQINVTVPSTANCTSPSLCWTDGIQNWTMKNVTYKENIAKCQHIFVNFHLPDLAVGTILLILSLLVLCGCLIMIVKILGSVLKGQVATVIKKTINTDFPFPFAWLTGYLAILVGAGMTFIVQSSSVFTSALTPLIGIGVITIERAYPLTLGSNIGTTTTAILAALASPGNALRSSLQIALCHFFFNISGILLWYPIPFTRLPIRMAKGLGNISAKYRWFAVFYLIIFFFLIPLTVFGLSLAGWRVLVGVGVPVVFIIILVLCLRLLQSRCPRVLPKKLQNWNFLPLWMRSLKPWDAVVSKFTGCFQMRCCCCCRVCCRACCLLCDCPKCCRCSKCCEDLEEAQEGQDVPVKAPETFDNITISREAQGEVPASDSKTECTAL

B1: Anti-Napi2b 10H1.11.4B LC K149C MC-Sq-Cit-PAB-Tubulysin M (antibody, DAR 1, V domains shown)
VH: EVQLVESGGGLVQPGGSLRLSCAASGFSFSDFAMSWVRQAPGKGLEWVATIGRVAFHTYYPDSMKGRFTISRDNSKNTLYLQMNSLRAEDTAVYYCARHRGFDVGHFDFWGQGTLVTVSS
VL: DIQMTQSPSSLSASVGDRVTITCRSSETLVHSSGNTYLEWYQQKPGKAPKLLIYRVSNRFSGVPSRFSGSGSGTDFTLTISSLQPEDFATYYCFQGSFNPLTFGQGTKVEIKR
B2: Anti-Napi2b 10H1.11.4B LC K149C MC-Sq-Cit-PAB Dolastatin 10 (antibody, DAR 1, V domains shown)
VH: B1 VH
VL: B1 VL

Experiments:
[1] = target: T1, NaPi2b (SLC34A2, type II …); experiment: cell-based or functional assay
[2] = target: T1, NaPi2b (SLC34A2, type II …); experiment: cell-based or functional assay; remark: listed apart in the source

| Binder | IGROV-1 IC50 (EdU Prolif assay) [1] | OVCAR-3x2.1 IC50 (EdU Prolif assay) [1] | IGROV-1 IC50 (EdU Prolif assay) [2] | OVCAR-3x2.1 IC50 (EdU Prolif assay) [2] |
| --- | --- | --- | --- | --- |
| B1 | 2.07 nM and 310 ng/mL | 151 ng/mL and 1 nM |  |  |
| B2 |  |  | 3.19 nM and 478 ng/mL | 1.52 nM and 228 ng/mL |
